Patent publication US10196657B2, “Methods of producing 7-carbon chemicals via methyl-ester shielded carbon chain elongation” (INVISTA North America S.á r.l., priority 2012, dated 2019)
Values belong to the molecule of their own block, whether it stands above or below them.

Legend:
Assay type in all cases: biochemical
[1] = Pimeloyl-[acp] methyl ester methylesterase activity assay, pimeloyl-CoA methyl ester to pimeloyl-CoA (LC-MS); details: 10 μM enzyme, 5 mM pimeloyl-CoA methyl ester, pH 7.0, 30° C., 1 h; FIG. 20
Description: A nucleotide sequence encoding a C-terminal His-tag was added to the gene from Escherichia coli encoding the pimeloyl-[acp] methylester methylesterase of SEQ ID NO: 17 (see FIG. 7H) such that a C-terminal HIS tagged pimeloyl-[acp] methyl ester methylesterase could be produced. The resulting modified gene was cloned into a pET28b+ expression vector under control of the T7 promoter and the expression vector was transformed into a BL21[DE3] E. coli host. The resulting recombinant E. coli strain was cultivated at 37° C. in a 500 mL shake flask culture containing 100 mL LB media and antibiotic selection pressure, with shaking at 230 rpm. Each culture was induced overnight at 18° C. using 0.3 mM IPTG.
The pellet from each induced shake flask culture was harvested via centrifugation. Each pellet was resuspended and lysed via sonication. The cell debris was separated from the supernatant via centrifugation. […]
Enzyme activity assays converting pimeloyl-CoA methyl ester to pimeloyl-CoA were performed in triplicate in a buffer composed of a final concentration of 25 mM Tris.HCl buffer (pH=7.0) and 5 [mM] pimeloyl-CoA methyl ester. […] The formation of pimeloyl-CoA was quantified via LC-MS.

[2] = Thioesterase enzyme activity assay, pimeloyl-CoA to pimelate (release of CoA, Ellman's reagent); details: 667 μM pimeloyl-CoA, 0.8 μM enzyme, pH 7.4, 37° C., 20 min; relative to empty vector control; FIG. 8
Description: A sequence encoding an N-terminal His tag was added to the tesB gene from Escherichia coli that encodes a thioesterase (SEQ ID NO 1, see FIG. 7A), such that an N-terminal HIS tagged thioesterase could be produced. The modified tesB gene was cloned into a pET15b expression vector under control of the T7 promoter. The expression vector was transformed into a BL21[DE3] E. coli host. The resulting recombinant E. coli strain was cultivated at 37° C. in a 500 mL shake flask culture containing 50 mL Luria Broth (LB) media and antibiotic selection pressure, with shaking at 230 rpm. The culture was induced overnight at 17° C. using 0.5 mM IPTG.
The pellet from the induced shake flask culture was harvested via centrifugation. The pellet was resuspended and lysed in Y-Per™ solution (ThermoScientific, Rockford, Ill.). The cell debris was separated from the supernatant via centrifugation. […]
The enzyme activity assay was performed in triplicate in a buffer composed of 50 mM phosphate buffer (pH=7.4), 0.1 mM Ellman's reagent, and 667 μM of pimeloyl-CoA (as substrate). […] The release of Coenzyme A was monitored by absorbance at 412 nm. The absorbance associated with the substrate only control, which contained boiled enzyme, was subtracted from the active enzyme assay absorbance and compared to the empty vector control.

[3] = Carboxylate reductase activity assay, pimelate semialdehyde to heptanedial; details: purified enzyme enhanced by sfp gene product, 2 mM pimelate semialdehyde, room temperature, 20 min; against empty vector control; FIG. 13
Description: The N-terminal His-tagged carboxylate reductase of SEQ ID NO 7 (see Example 4 and FIG. 7F) was assayed using pimelate semialdehyde as substrate. The enzyme activity assay was performed in triplicate in a buffer composed of a final concentration of 50 mM HEPES buffer (pH=7.5), 2 mM pimelate semialdehyde, 10 mM MgCl2, 1 mM ATP and 1 mM NADPH. The enzyme activity assay reaction was initiated by adding purified carboxylate reductase and phosphopantetheine transferase or the empty vector control to the assay buffer containing the pimelate semialdehyde and then incubated at room temperature for 20 min. The consumption of NADPH was monitored by absorbance at 340 nm.

[4] = Carboxylate reductase activity assay, pimelate to pimelate semialdehyde (NADPH consumption); details: purified enzyme enhanced by sfp gene product, 2 mM pimelate, room temperature, 20 min; against empty vector control; FIG. 10
Description: A sequence encoding a HIS-tag was added to the genes from Segniliparus rugosus and Segniliparus rotundus that encode the carboxylate reductases of SEQ ID NOs: 4 and 7, respectively (see FIGS. 7C and 7F), such that N-terminal HIS tagged carboxylate reductases could be produced. Each of the modified genes was cloned into a pET Duet expression vector along with a sfp gene encoding a HIS-tagged phosphopantetheine transferase from Bacillus subtilis, both under the T7 promoter. Each expression vector was transformed into a BL21[DE3] E. coli host and the resulting recombinant E. coli strains were cultivated at 37° C. in a 250 mL shake flask culture containing 50 mL LB media and antibiotic selection pressure, with shaking at 230 rpm. Each culture was induced overnight at 37° C. using an auto-induction media.
The pellet from each induced shake flask culture was harvested via centrifugation. Each pellet was resuspended and lysed via sonication, and the cell debris was separated from the supernatant via centrifugation. […]
Enzyme activity assays (i.e., from pimelate to pimelate semialdehyde) were performed in triplicate in a buffer composed of a final concentration of 50 mM HEPES buffer (pH=7.5), 2 mM pimelate, 10 mM MgCl2, 1 mM ATP and 1 mM NADPH. […] The consumption of NADPH was monitored by absorbance at 340 nm.

[5] = Carboxylate reductase activity assay, N7-acetyl-7-aminoheptanoate to N7-acetyl-7-aminoheptanal; details: purified enzyme enhanced by sfp gene product, 2 mM substrate, room temperature, 20 min; against empty vector control; FIG. 12
Description: The activity of each of the N-terminal His-tagged carboxylate reductases of SEQ ID NOs: 3, 6, and 7 (see Examples 4, and FIGS. 7B, 7E, and 7F) for converting N7-acetyl-7-aminoheptanoate to N7-acetyl-7-aminoheptanal was assayed in triplicate in a buffer composed of a final concentration of 50 mM HEPES buffer (pH=7.5), 2 mM N7-acetyl-7-aminoheptanoate, 10 mM MgCl2, 1 mM ATP, and 1 mM NADPH. The assays were initiated by adding purified carboxylate reductase and phosphopantetheine transferase or the empty vector control to the assay buffer containing the N7-acetyl-7-aminoheptanoate then incubated at room temperature for 20 min. The consumption of NADPH was monitored by absorbance at 340 nm.

B1: SEQ ID NO. 17: Escherichia coli pimelyl-[acp] methyl ester esterase, GenBank Accession No. AAC76437.1 (protein, listed as Escherichia coli)
chain: MNNIWWQTKGQGNVHLVLLHGWGLNAEVWRCIDEELSSHFTLHLVDLPGFGRSRGFGALSLADMAEAVLQQAPDKAIWLGWSLGGLVASQIALTHPERVQALVTVASSPCFSARDEWPGIKPDVLAGFQQQLSDDFQRTVERFLALQTMGTETARQDARALKKTVLALPMPEVDVLNGGLEILKTVDLRQPLQNVSMPFLRLYGYLDGLVPRKVVPMLDKLWPHSESYIFAKAAHAPFISHPAEFCHLLVALKQRV
acceptance of pimeloyl-CoA methyl ester as substrate, forming pimeloyl-CoA (LC-MS) [1]: accepted pimeloyl-CoA methyl ester as substrate

acceptance of pimeloyl-CoA as substrate (release of Coenzyme A, absorbance at 412 nm) [2]: accepted pimeloyl-CoA as substrate
B2: gene product of tesB: Escherichia coli thioesterase encoded by tesB, GenBank Accession No. AAA24665.1 (protein, listed as Escherichia coli)
chain: MSQALKNLLTLLNLEKIEEGLFRGQSEDLGLRQVFGGQVVGQALYAAKETVPEERLVHSFHSYFLRPGDSKKPIIYDVETLRDGNSFSARRVAAIQNGKPIFYMTASFQAPEAGFEHQKTMPSAPAPDGLPSETQIAQSLAHLLPPVLKDKFICDRPLEVRPVEFHNPLKGHVAEPHRQVWIRANGSVPDDLRVHQYLLGYASDLNFLPVALQPHGIGFLEPGIQIATIDHSMWFHRPFNLNEWLLYSVESTSASSARGFVRGEFYTQDGVLVASTVQEGVMRNHN

acceptance of pimelate as substrate (NADPH consumption, absorbance at 340 nm) [4]: accepted pimelate as substrate
B3: SEQ ID NO 7: Segniliparus rotundus carboxylate reductase, Genbank Accession No. ADG98140.1 (protein, listed as Segniliparus rotundus)
chain: MTQSHTQGPQASAAHSRLARRAAELLATDPQAAATLPDPEVVRQATRPGLRLAERVDAILSGYADRPALGQRSFQTVKDPITGRSSVELLPTFDTITYRELRERATAIASDLAHHPQAPAKPGDFLASIGFISVDYVAIDIAGVFAGLTAVPLQTGATLATLTAITAETAPTLFAASIEHLPTAVDAVLATPSVRRLLVFDYRAGSDEDREAVEAAKRKIADAGSSVLVDVLDEVIARGKSAPKAPLPPATDAGDDSLSLLIYTSGSTGTPKGAMYPERNVAHFWGGVWAAAFDEDAAPPVPAINITFLPLSHVASRLSLMPTLARGGLMHFVAKSDLSTLFEDLKLARPTNLFLVPRVVEMLYQHYQSELDRRGVQDGTREAEAVKDDLRTGLLGGRILTAGFGSAPLSAELAGFIESLLQIHLVDGYGSTEAGPVWRDGYLVKPPVTDYKLIDVPELGYFSTDSPHPRGELAIKTQTILPGYYKRPETTAEVFDEDGFYLTGDVVAQIGPEQFAYVDRRKNVLKLSQGEFVTLAKLEAAYSSSPLVRQLFVYGSSERSYLLAVIVPTPDALKKFGVGEAAKAALGESLQKIARDEGLQSYEVPRDFIIETDPFTVENGLLSDARKSLRPKLKEHYGERLEAMYKELADGQANELRDIRRGVQQRPTLETVRRAAAAMLGASAAEIKPDAHFTDLGGDSLSALTFSNFLHDLFEVDVPVGVIVSAANTLGSVAEHIDAQLAGGRARPTFATVHGKGSTTIKASDLTLDKFIDEQTLEAAKHLPKPADPPRTVLLTGANGWLGRFLALEWLERLAPAGGKLITIVRGKDAAQAKARLDAAYESGDPKLAGHYQDLAATTLEVLAGDFSEPRLGLDEATWNRLADEVDFISHPGALVNHVLPYNQLFGPNVAGVAEIIKLAITTRIKPVTYLSTVAVAAGVEPSALDEDGDIRTVSAERSVDEGYANGYGNSKWGGEVLLREAHDRTGLPVRVFRSDMILAHQKYTGQVNATDQFTRLVQSLLATGLAPKSFYELDAQGNRQRAHYDGIPVDFTAESITTLGGDGLEGYRSYNVFNPHRDGVGLDEFVDWLIEAGHPITRIDDYDQWLSRFETSLRGLPESKRQASVLPLLHAFARPGPAVDGSPFRNTVFRTDVQKAKIGAEHDIPHLGKALVLKYADDIKQLGLL
acceptance of pimelate semialdehyde as substrate, forming heptanedial (NADPH consumption, absorbance at 340 nm) [3]: accepted pimelate semialdehyde as substrate | acceptance of N7-acetyl-7-aminoheptanoate as substrate (NADPH consumption, absorbance at 340 nm) [5]: accepted N7-acetyl-7-aminoheptanoate as substrate
